Results: patent US20210130494A1 (ALETA BIOTHERAPEUTICS, published 2021)

Key:
[1] = biological target: T1, Human BCMA Protein, Fc Tag (R&D Systems, Cat#193-BC-050) (human, UniProt Q02223 1-54); assay: ELISA, plate-bound Human BCMA-Fc (FIG. 66A), anti-HIS-HRP
T1 construct: Bought reagent; also called Human BCMA-Fc; BCMA-Fc
T1 sequence (looked up): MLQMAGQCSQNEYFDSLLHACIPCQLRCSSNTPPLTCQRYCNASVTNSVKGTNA

[2] = biological target: T2, CD20 on stable transfectant line 293-CD20 (UniProt P11836 1-297); assay: flow cytometry, 293-CD20 cells, FMC63-PE
T2 construct: whole, on cells; also called CD20 expressing 293 cells
T2 sequence (looked up): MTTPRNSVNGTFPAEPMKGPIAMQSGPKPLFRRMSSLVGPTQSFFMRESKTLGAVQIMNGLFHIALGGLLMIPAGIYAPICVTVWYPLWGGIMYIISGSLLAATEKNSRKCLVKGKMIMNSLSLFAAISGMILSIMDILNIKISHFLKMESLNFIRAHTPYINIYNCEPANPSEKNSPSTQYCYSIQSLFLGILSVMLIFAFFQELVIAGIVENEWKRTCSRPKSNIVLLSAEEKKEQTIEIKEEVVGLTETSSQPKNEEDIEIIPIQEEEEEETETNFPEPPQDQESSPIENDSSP

[3] = biological target: T2, CD20 on stable transfectant line …; assay: flow cytometry, 293-CD20 cells, 200 µl fusion protein, FMC63-PE
[4] = biological target: T2, CD20 on stable transfectant line …; assay: flow cytometry, 293-CD20 cells, FMC63-PE or anti-HIS-PE
[5] = biological target: T3, FMC63 CAR-Flag (construct #140) on transfected 293T cells; assay: flow cytometry, 293T cells transfected with #140, supernatant or 5 ug/ml purified #151/#152, anti-mouse Fc gamma-PE
T3 construct: FMC63 VL-VH-Flag-CD28 linker/transmembrane/ICD-4-1BB ICD-CD3z ICD; also called anti-CD19 FMC63 CAR; CAR19
T3 sequence (chain, as listed by the source limits assumed): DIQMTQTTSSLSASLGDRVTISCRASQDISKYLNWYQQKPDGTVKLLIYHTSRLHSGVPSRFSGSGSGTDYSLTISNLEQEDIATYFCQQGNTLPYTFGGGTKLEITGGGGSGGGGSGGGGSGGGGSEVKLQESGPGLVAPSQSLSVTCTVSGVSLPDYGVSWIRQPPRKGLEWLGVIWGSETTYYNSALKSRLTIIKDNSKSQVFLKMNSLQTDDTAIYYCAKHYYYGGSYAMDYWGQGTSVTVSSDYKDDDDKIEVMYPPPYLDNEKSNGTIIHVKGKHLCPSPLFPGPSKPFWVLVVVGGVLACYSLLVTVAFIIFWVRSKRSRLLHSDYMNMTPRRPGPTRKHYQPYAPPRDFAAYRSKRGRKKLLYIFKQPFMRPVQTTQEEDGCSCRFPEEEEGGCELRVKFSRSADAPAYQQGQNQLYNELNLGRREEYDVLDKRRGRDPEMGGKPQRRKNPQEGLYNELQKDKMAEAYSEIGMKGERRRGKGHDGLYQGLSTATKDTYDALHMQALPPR

B1: C11D5.3 scFv (VH/VL) (construct #90) (scFv)
scFv: QIQLVQSGPELKKPGETVKISCKASGYTFTDYSINWVKRAPGKGLKWMGWINTETREPAYAYDFRGRFAFSLETSASTAYLQINNLKYEDTATYFCALDYSYAMDYWGQGTSVTVSSGSTSGSGKPGSGEGSTKGDIVLTQSPPSLAMSLGKRATISCRASESVTILGSHLIHWYQQKPGQPPTLLIQLASNVQTGVPARFSGSGSRTDFTLTIDPVEEDDVAVYYCLQSRTIPRTFGGGTKLEIKGGGGSGGGGSGGGGSHHHHHH
notes: C-terminal His tag
binding result [1]: binds

B2: CD19-D1+2-C11D5.3 scFv (VH/VL) (construct #92) (other)
chain: PEEPLVVKVEEGDNAVLQCLKGTSDGPTQQLTWSRESPLKPFLKLSLGLPGLGIHMRPLAIWLFIFNVSQQMGGFYLCQPGPPSEKAWQPGWTVNVEGSGELFRWNVSDLGGLGCGLKNRSSEGPSSPSGKLMSPKLYVWAKDRPEIWEGEPPCLPPRDSLNQSLSQDLTMAPGSTLWLSCGVPPDSVSRGPLSWTHVHPKGPKSLLSLELKDDRPARDMWVMETGLLLPRATAQDAGKYYCHRGNLTMSFHLEITARPGGGGSGGGGSGGGGSGGGGSQIQLVQSGPELKKPGETVKISCKASGYTFTDYSINWVKRAPGKGLKWMGWINTETREPAYAYDFRGRFAFSLETSASTAYLQINNLKYEDTATYFCALDYSYAMDYWGQGTSVTVSSGSTSGSGKPGSGEGSTKGDIVLTQSPPSLAMSLGKRATISCRASESVTILGSHLIHWYQQKPGQPPTLLIQLASNVQTGVPARFSGSGSRTDFTLTIDPVEEDDVAVYYCLQSRTIPRTFGGGTKLEIKGGGGSGGGGSGGGGSHHHHHH
notes: C-terminal His tag
binding result [1]: binds

B3: CD19-D1+2-Leu16 scFv (VL/VH) (construct #85) (other)
chain: PEEPLVVKVEEGDNAVLQCLKGTSDGPTQQLTWSRESPLKPFLKLSLGLPGLGIHMRPLAIWLFIFNVSQQMGGFYLCQPGPPSEKAWQPGWTVNVEGSGELFRWNVSDLGGLGCGLKNRSSEGPSSPSGKLMSPKLYVWAKDRPEIWEGEPPCLPPRDSLNQSLSQDLTMAPGSTLWLSCGVPPDSVSRGPLSWTHVHPKGPKSLLSLELKDDRPARDMWVMETGLLLPRATAQDAGKYYCHRGNLTMSFHLEITARPGGGGSGGGGSGGGGSGGGGSDIELTQSPTILSASPGEKVTMTCRASSSVNYMDWYQKKPGSSPKPWIYATSNLASGVPARFSGSGSGTSYSLTISRVEAEDAATYYCQQWSFNPPTFGGGTKLEIKRGGGGSGGGGSGGGGSMAQVKLQESGAELVKPGASVKMSCKASGYTFTSYNMHWVKQTPGQGLEWIGAIYPGNGDTSYNQKFKGKATLTADKSSSTAYMQLSSLTSEDSADYYCARSNYYGSSYWFFDVWGQGTTVTVSSAAAHHHHHH
notes: C-terminal His tag
binding result [2]: no binding (tested: 200 µl)

B4: CD19-ECD-Leu16 scFv (VH/VL) (construct #63) (other)
chain: PEEPLVVKVEEGDNAVLQCLKGTSDGPTQQLTWSRESPLKPFLKLSLGLPGLGIHMRPLAIWLFIFNVSQQMGGFYLCQPGPPSEKAWQPGWTVNVEGSGELFRWNVSDLGGLGCGLKNRSSEGPSSPSGKLMSPKLYVWAKDRPEIWEGEPPCLPPRDSLNQSLSQDLTMAPGSTLWLSCGVPPDSVSRGPLSWTHVHPKGPKSLLSLELKDDRPARDMWVMETGLLLPRATAQDAGKYYCHRGNLTMSFHLEITARPVLWHWLLRTGGWKGGGGSGGGGSGGGGSGGGGSEVQLQQSGAELVKPGASVKMSCKASGYTFTSYNMHWVKQTPGQGLEWIGAIYPGNGDTSYNQKFKGKATLTADKSSSTAYMQLSSLTSEDSADYYCARSNYYGSSYWFFDVWGAGTTVTVSSGSTSGGGSGGGSGGGGSSDIVLTQSPAILSASPGEKVTMTCRASSSVNYMDWYQKKPGSSPKPWIYATSNLASGVPARFSGSGSGTSYSLTISRVEAEDAATYYCQQWSFNPPTFGGGTKLEIKHHHHHH
notes: C-terminal His tag; also called CD19 full-length extracellular domain-anti-CD20 Leu16 scFv VH-VL-His fusion protein
binding result [3]: binds

B5: CD19-D1+2-Leu16 scFv (VH/VL) (construct #83) (other)
chain: PEEPLVVKVEEGDNAVLQCLKGTSDGPTQQLTWSRESPLKPFLKLSLGLPGLGIHMRPLAIWLFIFNVSQQMGGFYLCQPGPPSEKAWQPGWTVNVEGSGELFRWNVSDLGGLGCGLKNRSSEGPSSPSGKLMSPKLYVWAKDRPEIWEGEPPCLPPRDSLNQSLSQDLTMAPGSTLWLSCGVPPDSVSRGPLSWTHVHPKGPKSLLSLELKDDRPARDMWVMETGLLLPRATAQDAGKYYCHRGNLTMSFHLEITARPGGGGSGGGGSGGGGSGGGGSMAQVKLQESGAELVKPGASVKMSCKASGYTFTSYNMHWVKQTPGQGLEWIGAIYPGNGDTSYNQKFKGKATLTADKSSSTAYMQLSSLTSEDSADYYCARSNYYGSSYWFFDVWGQGTTVTVSSGGGGSGGGGSGGGGSDIELTQSPTILSASPGEKVTMTCRASSSVNYMDWYQKKPGSSPKPWIYATSNLASGVPARFSGSGSGTSYSLTISRVEAEDAATYYCQQWSFNPPTFGGGTKLEIKRAAAHHHHHH
notes: C-terminal His tag
binding result [4]: binds

B6: C11D5.3 scFv (VL/VH) (construct #89) (scFv)
scFv: DIVLTQSPPSLAMSLGKRATISCRASESVTILGSHLIHWYQQKPGQPPTLLIQLASNVQTGVPARFSGSGSRTDFTLTIDPVEEDDVAVYYCLQSRTIPRTFGGGTKLEIKGSTSGSGKPGSGEGSTKGQIQLVQSGPELKKPGETVKISCKASGYTFTDYSINWVKRAPGKGLKWMGWINTETREPAYAYDFRGRFAFSLETSASTAYLQINNLKYEDTATYFCALDYSYAMDYWGQGTSVTVSSGGGGSGGGGSGGGGSHHHHHH
notes: C-terminal His tag
binding result [1]: binds

B7: CD19-D1+2-C11D5.3 scFv (VL/VH) (construct #91) (other)
chain: PEEPLVVKVEEGDNAVLQCLKGTSDGPTQQLTWSRESPLKPFLKLSLGLPGLGIHMRPLAIWLFIFNVSQQMGGFYLCQPGPPSEKAWQPGWTVNVEGSGELFRWNVSDLGGLGCGLKNRSSEGPSSPSGKLMSPKLYVWAKDRPEIWEGEPPCLPPRDSLNQSLSQDLTMAPGSTLWLSCGVPPDSVSRGPLSWTHVHPKGPKSLLSLELKDDRPARDMWVMETGLLLPRATAQDAGKYYCHRGNLTMSFHLEITARPGGGGSGGGGSGGGGSGGGGSDIVLTQSPPSLAMSLGKRATISCRASESVTILGSHLIHWYQQKPGQPPTLLIQLASNVQTGVPARFSGSGSRTDFTLTIDPVEEDDVAVYYCLQSRTIPRTFGGGTKLEIKGSTSGSGKPGSGEGSTKGQIQLVQSGPELKKPGETVKISCKASGYTFTDYSINWVKRAPGKGLKWMGWINTETREPAYAYDFRGRFAFSLETSASTAYLQINNLKYEDTATYFCALDYSYAMDYWGQGTSVTVSSGGGGSGGGGSGGGGSHHHHHH
notes: C-terminal His tag
binding result [1]: binds

B8: anti-FMC63 antibody 136.20.1 (constructs #151/#152) (antibody, V domains shown)
VH: EVKLVESGGGLVQPGGSLKLSCAASGFDFSRYWMSWVRQAPGKGLEWIGEINLDSSTINYTPSLKDKFIISRDNAKNTLYLQMSKVRSEDTALYYCARRYDAMDYWGQGTSVTVSS
VL: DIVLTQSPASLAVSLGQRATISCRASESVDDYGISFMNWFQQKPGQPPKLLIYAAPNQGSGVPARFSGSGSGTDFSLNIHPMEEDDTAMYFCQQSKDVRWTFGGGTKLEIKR
notes: supernatant or purified protein (5 ug/ml); also called anti-FMC63 (anti-Id) antibody; secreted anti-FMC63 antibody
binding result [5]: binds
